From patent US20210361750A1, “Anti-Viral Lactoferrin Facemask” (priority 2020, published 2021)

Legend:
[1] = system: SARS-CoV-2; assay: SARS-CoV-2 cytopathic effect inhibition by lactoferrin at various pH levels in Vero E6 cells; type: cell-based, SARS-CoV-2 (strain COV2019 Italy/INM11); details: for average neutralizing titer: lactoferrin 10 mg/mL
[2] = system: Vero cells; details: 10 mg/mL lactoferrin, incubated up to 72 hours
[3] = system: SARS-CoV-2; details: patients with SARS-CoV-2, after oral administration; cited from earlier work
[4] = system: Vero E6 cells; details: control without virus, 10 mg/mL
[5] = system: SARS-CoV-2; assay: Cyclodextrin testing: antiviral activity against SARS-CoV-2 in Vero E6 cells (CPE); type: cell-based; details: pH 7; lactoferrin alone 10 mg/mL, cyclodextrin alone 10 mg/mL, or lactoferrin 5 mg/mL + cyclodextrin 10 mg/mL

B1: lactoferrin (protein, UniProt P02788 20-710, looked up)
Lactotransferrin: GRRRSVQWCAVSQPEATKCFQWQRNMRKVRGPPVSCIKRDSPIQCIQAIAENRADAVTLDGGFIYEAGLAPYKLRPVAAEVYGTERQPRTHYYAVAVVKKGGSFQLNELQGLKSCHTGLRRTAGWNVPIGTLRPFLNWTGPPEPIEAAVARFFSASCVPGADKGQFPNLCRLCAGTGENKCAFSSQEPYFSYSGAFKCLRDGAGDVAFIRESTVFEDLSDEAERDEYELLCPDNTRKPVDKFKDCHLARVPSHAVVARSVNGKEDAIWNLLRQAQEKFGKDKSPKFQLFGSPSGQKDLLFKDSAIGFSRVPPRIDSGLYLGSGYFTAIQNLRKSEEEVAARRARVVWCAVGEQELRKCNQWSGLSEGSVTCSSASTTEDCIALVLKGEADAMSLDGGYVYTAGKCGLVPVLAENYKSQQSSDPDPNCVDRPVEGYLAVAVVRRSDTSLTWNSVKGKKSCHTAVDRTAGWNIPMGLLFNQTGSCKFDEYFSQSCAPGSDPRSNLCALCIGDEQGENKCVPNSNERYYGYTGAFRCLAENAGDVAFVKDVTVLQNTDGNNNEAWAKDLKLADFALLCLDGKRKPVTEARSCHLAMAPNHAVVSRMDKVERLKQVLLHQQAKFGRNGSDCPDKFCLFQSETKNLLFNDNTECLARLHGKTTYEKYLGPQYVAGITNLKKCSTSPLLEACEFLRK
notes: stock solution in water at 10 mg/mL
[1]; cells pre-incubated with lactoferrin 0.313-10 mg/mL for one hour
  inhibitory effect on viral infection in Vero cells: showed an inhibitory effect
[1]; pH 4
  average neutralizing titer: 452
[1]; pH 7
  average neutralizing titer: 40
  antiviral efficacy: consistent low efficacy
[1]; pH 4, 5, and 6
  lactoferrin concentration of maximum inhibitory effect: 5 mg/mL
[1]; without the pre-incubation step, any pH
  inhibitory effect on viral infection: no inhibitory effect
[2]
  cellular cytotoxicity: No cellular cytotoxicity
[3]
  time to reduced severity and duration of disease: 4 to 5 days
[4]
  cytopathic effect on the cells: neither the lactoferrin alone (10 mg/mL) or the cyclodextrin alone (10 mg/mL) had a cytopathic effect
[5]
  antiviral activity (cytopathic effect): did not show antiviral activity
